Results taken from PMC13061415 (2026).

B1: muskelin CTLH-CRA domain (205–735 Δ248–625) [rat] / Twa1 CTLH-CRA domain (58-190), wild type [mouse] (parent complex)
chain 1: EHPMLTDMHDKLVLKGDFDACEELIEKAVNDGLFNQYISQQEYPSKDYLLRHCKYLIRKHRFEEKAQMDPLSALKYLQNDLYITVDHSDPEETKEFQLLASALFKSGSDFTALGFSDVDHTYAQRTQLFDTLVNFFPDSMTPPKGNLVDLITL
chain 2: SVDLETLDERIKIREMILKGQIQEAIALINSLHPELLDTNRYLYFHLQQQHLIELIRQRETEAALEFAQTQLAEQGEESRECLTEMERTLALLAFDSPEESPFGDLLHMMQRQKVWSEVNQAVLDYENRESTP

Variants of: B1
Assay: ITC; 160 µM muskelin + 16 µM Twa1 mutants; read off a plot

Row | Variant | dG
1 | chain 2 A68G, chain 2 Q69R, chain 2 A73Q, chain 2 L83K, chain 2 E87K, chain 2 L90F, chain 2 F95Y, chain 2 F103V | ~-8.8 kcal/mol
